± gives the standard error. Fewer inactive variants are shown than the library holds.
B1: glmS ribozyme (parent)
chain: AUAAAAGCGCCAGAACUACAGAAAUGUAGUUGACGAGGAGGAGGUUUAUCGAAUUUUCGGCGGAUGCCUCCAAA

Variants of: B1
Assay: self-cleavage kobs at 2500 uM GlcN6P; higher = faster cleavage; RNA array
Conditions: with glucosamine-6-phosphate
Method in brief: (§1)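 Barcoded ribozyme variants on sequenced MiSeq chips were transcribed in situ by E. coli RNA polymerase and followed at 37 °C through a hybridised Cy3 probe. Glucosamine-6-phosphate at 40 μM to 10 mM in HEPES/KCl/Mg(OAc)2 buffer was flowed in, and tiles were imaged over ~14 h. Signals were normalised to baseline and to non-cleaving reference variants, and per-tile medians were fit to one- or two-exponential decays to give kobs. Weighted Michaelis–Menten fits across concentrations gave kcat and KM.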

Point of comparison: AUAAAAGCGCCAGAACUACAGAAAUGUAUUCGACGAGGAGGAGGUUUAUCGAACUUUCGGCGGAUGCCUCCAAA [G29U U31C U54C], “self-cleavage kobs at 2500 uM GlcN6P” value 0.000161 ± 3.5e-05 s⁻¹. Against it:
- AUAAAAGCGCCAGAACUACAGAAAUGUAGAUGACGAGGGGGAGGUUUAUCGAAUUUUCGGCGGAUGCCUUCAAA [U30A A39G C70U] — 21-fold higher, 0.00333 ± 0.00077 s⁻¹
- AUAAAAGCGCCAGAACUACAGAAAUGUAGAUGACGAGGAGGAUGUUUAUCGAAUUUUCGGAGGAUGCCUCUAAA [U30A G43U C61A C71U] — lower, < 1e-05 s⁻¹
- AUAAAAGCGCCAGAACUACAGAAAUGUACUUGUCGAGGAGGAGGUUUAUCGAAUUUUCGGCAGUUGCCUCCAAA [G29C A33U G62A A64U] — lower, < 1e-05 s⁻¹
- AUAAAAGCGCCAGAACUACAGAAAUGUACUUGACGAGGAGGAGGUUUAUCGGAUUUUCGGCGGAUGUCUCCAAA [G29C A52G C67U] — 2.1-fold lower, 7.8e-05 ± 2.1e-05 s⁻¹
- AUAAAAGCGCCAGAACUACAGAAAUUUAGUUGACGCGGAGGAGGUUUAUCGAAUUUUCGGCGGAUGCCUCCAAA [G26U A36C] — lower, < 1e-05 s⁻¹
- AUAAAAGCGCCAGAACUACAGAAAUGUACUUUACGAGGAGGAGGUUUAUCGAAUUUUCGGCGGAUGACUCCAAA [G29C G32U C67A] — 3.7-fold lower, 4.32e-05 ± 2e-05 s⁻¹
- AUAAAAGCGCCAGAACUACAGAAAUGUAAUUGACGAGGAGGAGGUUUAUCGAAUUUUCGGCGGAGGCCUCCAAA [G29A U65G] — 4.1-fold higher, 0.000664 ± 0.00023 s⁻¹
- AUAAAAGCGCCAGAACUACAGAAAUGUACUUGACGAAGAGGACGUUUAUCGAAUUUUCGGCGGAUGCCACCAAA [G29C G37A G43C U69A] — lower, < 1e-05 s⁻¹
- AUAAAAGCGCCAGAACUACAGAAAUGUAGAUGACGAGGAGUAGGUUUAUCGAAUUUUCGGCGGAUGCCUGCAAA [U30A G41U C70G] — 24-fold higher, 0.00387 ± 0.0011 s⁻¹
- AUAAAAGCGCCAGAACUACAUAAAUGUAGUUGACGAGGAGGAGGUUUAUCGAAUUUUCGGCGGUUGCCUCCAAA [G21U A64U] — within error, 0.000111 ± 2.9e-05 s⁻¹
- AUAAAAGCGCCAGAACUACAGAAAUGUAAUUGACGAGGAGGAGGUUUAUGGAAUAUUCGGCGGAUGCCUCCAAA [G29A C50G U55A] — within error, 0.000211 ± 8.8e-05 s⁻¹
- AUAAAAGCGCCAGAACUAAAGAAAUGUAGUUGACGAGGAGGCGGUUUAUCGAAUUUUCGGCGGAUGCCUCCAAA [C19A A42C] — lower, < 1e-05 s⁻¹
- AUAAAAGCGCCAGAACUACAGAAAUGUAUUUGACGACGAGGAGGUGUAUCGAAUUUUCGGCGGAUGCCUCCAAA [G29U G37C U46G] — lower, < 1e-05 s⁻¹
- AUAAAAGCGCCAGAACUACAGAAAUGUACUUCACGAGGAGGAGGUUUAUCGAAUUUUCGGCGGAUGCCUCCAAA [G29C G32C] — 5.6-fold lower, 2.89e-05 ± 9.4e-06 s⁻¹
- AUAAAAGCGCCAGAACUACAGAAAUUUAGUUGACGAGGAGGAGGUUUAUCGAAUUUUCGGCGGAUGUCUCCAAA [G26U C67U] — 2.4-fold higher, 0.000381 ± 0.00017 s⁻¹
- AUAAAAGCGCCAGAACUACAGAAAUGUAAUUGACGAGGAGGAGGUUUAUCGAAUUUUCGGCGCAUGCGUCCAAA [G29A G63C C68G] — within error, 0.000233 ± 6.2e-05 s⁻¹
- AUAAAAGCGCCAGAACUAAAGAAAUGUAGUUGACGAGGAGGAGAUUUAUCGAAUUUUCGGCGGAUGCCUCCAAA [C19A G44A] — within error, 0.000112 ± 4e-05 s⁻¹
- AUAAAAGCGCCAGAACUACAGAAAUUUAGUUUACGAGGAGGAGGUUUAUCGAAUGUUCGGCGGAUGCCUCCAAA [G26U G32U U55G] — within error, 0.000168 ± 8.2e-05 s⁻¹
- AUAAAAGCGCCAGAACUACAGAAAUGUACUUGACGAGGAGGAGGUUUAUCGACUUUUCGGCGGAUGUCUCCAAA [G29C A53C C67U] — within error, 0.000153 ± 4.1e-05 s⁻¹
- AUAAAAGCGCCAGAACUACAGAAAUAUAGCUGACGAGGAGGAGGUUUAUCGAAUUUUCGGCGGAUGCCUCCAAA [G26A U30C] — within error, 0.000125 ± 3.9e-05 s⁻¹
- AUAAAAGCGCCAGAACUACAGAAAUGUAAUUGACGAGUAAGCGGUUUAUCGAAUUUUCGGCGGAUGCCUCCAAA [G29A G38U G40A A42C] — lower, < 1e-05 s⁻¹
- AUAAAAGCGCCAGAACUACAGAAAUGUACUUGACGAGGAGGAGGUUUAUCGAAGUUUCGGCGGAUGCAUCGAAA [G29C U54G C68A C71G] — within error, 9.33e-05 ± 4.3e-05 s⁻¹
- AUAAAAGCGCCAGAACUACAGAAAUGUAAUUGACGAGGAGGAGGUUUAUCGAAUUUUCGUCGGAUGCCUCAAAA [G29A G60U C71A] — lower, < 1e-05 s⁻¹
- AUAAAAGCGCCAGAACUACAGAAAUGUAAUUCACGAGGAGGAGGUUUAUCGAAUUUUCGGCGGUUGCCUCCAAA [G29A G32C A64U] — lower, < 1e-05 s⁻¹
- AUAAAAGCGCCAGAACUACAGAAAUGUAUUUGACGAGGAGGAGGUUUAUCGAAUUAUCGGCGGAUGCUUCCAAA [G29U U56A C68U] — 2.6-fold higher, 0.000413 ± 6.5e-05 s⁻¹
- AUAAAAGCGCCAGAACUACAGAAAUGUACUUGUCGAGCAGGAGGUUUAUCGAAUUAUCGGCGGAUGCCUCUAAA [G29C A33U G38C U56A C71U] — lower, < 1e-05 s⁻¹
- AUAAAAGCGCCAGAACUACAGAAAUGUAUUUGACGAGGUGGAGGUUUAUCGAAUUUUCCGAGGAUGCCUCCAAA [G29U A39U G59C C61A] — lower, < 1e-05 s⁻¹
- AUAAAAGCGCCAGAACUACAGAAAUGUACUUGACGAGGAGGAGGUUUAUCGAAUUUUCUGCGGAUCCCUACAAA [G29C G59U G66C C70A] — within error, 0.000112 ± 2.7e-05 s⁻¹
- AUAAAAGCGCCAGAACUACAGAAAUGUACUUGACGAGGAGGAGGUUUAUUGAAUUUUCGGCGGAUGCAUCCAAA [G29C C50U C68A] — 2.3-fold lower, 7.07e-05 ± 2.7e-05 s⁻¹
- AUAAAAGCGCCAGAACUACAGAAAUGUAAUUGACUAGGAGGAGGUUUAUCGAUUUUUCGGCGGAUGCCUCCAAA [G29A G35U A53U] — lower, < 1e-05 s⁻¹
- AUAAAAGCGCCAGAACUACAGAAAUGUAAUUGACGGGUAGGAGGUUUAUUGAAUUUUCGGCGGAUGCCUCCAAA [G29A A36G G38U C50U] — lower, < 1e-05 s⁻¹
- AUAAAAGCGCCAGAACUACAGAAAUGUAAUUGACGAGGAGUAGGUUUAUCGAAUUUUCGGCCGAUGCCUCCAAA [G29A G41U G62C] — lower, < 1e-05 s⁻¹

Variants of: B1
Assay: self-cleavage kobs at 10000 uM GlcN6P; higher = faster cleavage; RNA array
Conditions: with glucosamine-6-phosphate
Method in brief: as §1

Point of comparison: AUAAAAGCGCCAGAACUACAGAAAUGUACUUCACGAGGAGGAGGUUUAUCGAAUUUUCGGCGGAUGCCUCCAAA [G29C G32C], “self-cleavage kobs at 10000 uM GlcN6P” value 9.51e-05 ± 1.2e-05 s⁻¹. Against it:
- AUAAAAGCGCCAGAACUACAGAAAUGUACUUUACGAGGAGGAGGUUUAUCGAAUUUUCGGCGGAUGACUCCAAA [G29C G32U C67A] — 1.8-fold higher, 0.00017 ± 2.6e-05 s⁻¹
- AUAAAAGCGCCAGAACUACAGAAAUGUAAUUGACGAGGAGGAGGUUUAUCGAAUUUUCGGCGGAGGCCUCCAAA [G29A U65G] — 12-fold higher, 0.00113 ± 0.00027 s⁻¹
- AUAAAAGCGCCAGAACUACAGAAAUGUAAUUGACGAGUAAGCGGUUUAUCGAAUUUUCGGCGGAUGCCUCCAAA [G29A G38U G40A A42C] — lower, < 1e-05 s⁻¹

From the supplement of paper PMC7125110
